B1: MBP-IBD (domain or fragment, human, UniProt O75475-1 347-429, looked up)
chain: SMDSRLQRIHAEIKNSLKIDNLDVNRCIEALDELASLQVTMQQAQKHTEMITTLKKIRRFKVSQVIMEKSTMLYNKFKNMFLV
notes: the introduction gives amino acids 347 to 429 for the IBD; GenBank NM_033222; The limits are those printed for the minimal IBD in the introduction; also called IBD-MBP; source: E. coli BL21 (plasmid pMBP-IBD), purified
B2: C-terminal His6-tagged HIV-1 integrase, wild type (enzyme, HIV-1 (NL4-3), UniProt P12497 1148-1435, looked up)
chain: FLDGIDKAQEEHEKYHSNWRAMASDFNLPPVVAKEIVASCDKCQLKGEAMHGQVDCSPGIWQLDCTHLEGKVILVAVHVASGYIEAEVIPAETGQETAYFLLKLAGRWPVKTVHTDNGSNFTSTTVKAACWWAGIKQEFGIPYNPQSQGVIESMNKELKKIIGQVRDQAEHLKTAVQMAVFIHNFKRKGGIGGYSAGERIVDIIATDIQTKELQKQITKIQNFRVYYRDSRDPVWKGPAKLLWKGEGAVVIQDNSDIKVVPRRKAKIIRDYGKQMAGDDCVASRQDED
notes: HIV-1 NL4-3 integrase (IN), the cut product of the Gag-Pol polyprotein; GenBank U26942, base pairs 3608 through 4471; the results call it IN^s (IN from a synthetic gene); also called IN-WT; WT IN^s; not shown: His6, C-terminal, kept
B3: MBP-Δ325 (domain or fragment, human, UniProt O75475-1 325-530, looked up)
chain: EQQNKDEGKKPEVKKVEKKRETSMDSRLQRIHAEIKNSLKIDNLDVNRCIEALDELASLQVTMQQAQKHTEMITTLKKIRRFKVSQVIMEKSTMLYNKFKNMFLVGEGDSVITQVLNKSLAEQRQHEEANKTKDQGKKGPNKKLEKEQTGSKTLNGGSDAQDGNQPQHNGESNEDSKDNHEASTKKKPSSEERETEISLKDSTLDN
notes: GenBank NM_033222; also called Δ325-MBP; Δ325 fragment; source: E. coli BL21 (plasmid pMBP-Δ325), purified

Test [1] addresses C-terminal His6-tagged HIV-1 integrase E170G (HIV-1 (NL4-3)). Description: AlphaScreen or HTRF; 300 nM C-terminal His6-tagged IN with increasing MBP-Δ325 (30 to 300 nM); Ni-chelate acceptor beads, anti-MBP donor beads; 25 mM Tris/HCl pH 7.3, 150 mM NaCl, 1 mM MgCl2, 0.01% Tween-20, 0.1% BSA; room temperature.
Test [2] deals with C-terminal His6-tagged HIV-1 integrase A128T/E170G (HIV-1 (NL4-3)). Described as above.
For test [3], the target named is C-terminal His6-tagged HIV-1 integrase A128T (HIV-1 (NL4-3)). Described as above.
The target of test [4] is B2. As to the kind of experiment: pull-down; 6 μg C-terminal His6-tagged IN on Ni-NTA-agarose; 6 μg LEDGF/p75, MBP-IBD or MBP-Δ325 added; 25 mM Tris-HCl pH 7.4, 0.1% Nonidet P-40, 20 mM imidazole, 150 mM NaCl, 1 mM MgCl2, BSA; 4 h at 4 °C; SDS-PAGE, Coomassie Blue. Conditions: both partners purified.
Test [5] addresses T1, Nontagged LEDGF/p75 (human, UniProt O75475-1 1-530).
T1 construct: LEDGF/p75, human, 530 amino acids, GenBank NM_033222; also called recombinant LEDGF/p75; full-length LEDGF/p75; source: E. coli BL21(DE3) (plasmid pCPnat75), purified
The test is described as above. Conditions: both partners purified.

In test [6] the target is B2. Description: AlphaScreen or HTRF; 30 nM C-terminal His6-tagged IN with increasing MBP-Δ325 (30 to 300 nM); Ni-chelate acceptor beads, anti-MBP donor beads; 25 mM Tris/HCl pH 7.3, 150 mM NaCl, 1 mM MgCl2, 0.01% Tween-20, 0.1% BSA; room temperature. The settings on record: both partners purified. Background: In Alpha technology, singlet oxygen from a donor bead excites a nearby acceptor bead.

Take “MBP-Δ325 (from UniProt O75475-1 325-530) (domain or fragment)”: the fold reduction of the AlphaScreen signal compared with IN-WT (300 nM IN) in test [1] worked out at 3 fold; in test [3] it was 2 fold. Further, the fold reduction of the AlphaScreen signal compared with IN-WT (300 nM IN, 300 nM MBP-Δ325) in test [2] is 8 fold. As to B1, the binding result in test [4] is recorded as “binds”. As to B2, in test [5], the binding result was “binds”. Consider B3, for which, in test [6], the binding result is given as “binds”.

Values taken from publication PMC1839165, “Virus Evolution Reveals an Exclusive Role for LEDGF/p75 in Chromosomal Tethering of HIV” (PLoS Pathogens, 2007).
